Assay results as given in patent US20040052794, “p53 regulatory protein called RB18A and uses thereof” (published 2004).

Experiments:
GST-RB18A-N2 = target: T1, GST-RB18A-N2 (Homo sapiens, UniProt Q15648 SEQ:1234-1566); test: EMSA; no direct interaction with p53 oligonucleotide; details: tags: N-terminal GST; label: 32P; EcoRI-compatible ends
T1 chain: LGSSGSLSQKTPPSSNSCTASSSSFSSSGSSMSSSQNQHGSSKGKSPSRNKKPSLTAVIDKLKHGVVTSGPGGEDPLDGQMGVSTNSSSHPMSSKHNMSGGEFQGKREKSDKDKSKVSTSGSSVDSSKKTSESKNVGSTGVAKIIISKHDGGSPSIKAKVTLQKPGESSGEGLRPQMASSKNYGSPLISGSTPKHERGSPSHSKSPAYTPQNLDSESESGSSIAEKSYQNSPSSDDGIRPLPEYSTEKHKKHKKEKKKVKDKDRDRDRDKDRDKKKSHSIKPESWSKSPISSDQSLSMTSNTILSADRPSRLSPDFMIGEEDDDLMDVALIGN
Experimental: (§1) Part A: four μl of in vitro translated products of wild-type p53 (lanes 2, 5-10) or Luciferase (lanes 3-4) cDNAs were incubated for 20 min at room temperature with 0.2 μg of PAb421 (lane 5) or PAb1801 (lane 6) moAbs or with 1 μg of GST-RB18A-N2 (lanes 4, 7, 8 and 9) or GST-RB18A-Nl1 (lane 10) proteins. Then, a radiolabeled oligonucleotide (0.4 ng per lane) containing the consensus DNA binding site of p53 was added for 20 min at 4° C.
(§2) EMSA was performed as follows. Translated product (4 μl) was pre-incubated for 20 min at room temperature with 1 μg of GST-RB18A fusion protein or 0.2 μg of moAb in a final reaction volume of 14 μl of buffer A (25 mM Tris, pH 7.4, 80 mM KCl, 0.1 mM EDTA, 1 mM DTT and 10% glycerol). Then, 6 μl of buffer B (80 mM KCl, 16.6 mM MgCl₂ and 3 mg/ml BSA) containing 0.4 ng of labeled oligonucleotide and 0.5 μg of poly(dl-dC) were added and incubation was carried out for 20 min at 4° C. Reaction products were run for 15 min at 200 V on a 4% polyacrylamide gel containing 0.4×Tris-Borate-EDTA (90 mM Tris, 64.6 mM Borate, 2.5 mM EDTA, pH 8.3).

p53 wild-type = p53 wild-type (Homo sapiens, UniProt P04637 P04637:1-393); test: competition; non-specific oligo did not inhibit the complex with n1; details: tags: none; plasmid pSP65-p53H8; chain copies: 4
Experimental: as §1, §2

Chain of p53 wild-type (P04637 whole entry, one chain of several): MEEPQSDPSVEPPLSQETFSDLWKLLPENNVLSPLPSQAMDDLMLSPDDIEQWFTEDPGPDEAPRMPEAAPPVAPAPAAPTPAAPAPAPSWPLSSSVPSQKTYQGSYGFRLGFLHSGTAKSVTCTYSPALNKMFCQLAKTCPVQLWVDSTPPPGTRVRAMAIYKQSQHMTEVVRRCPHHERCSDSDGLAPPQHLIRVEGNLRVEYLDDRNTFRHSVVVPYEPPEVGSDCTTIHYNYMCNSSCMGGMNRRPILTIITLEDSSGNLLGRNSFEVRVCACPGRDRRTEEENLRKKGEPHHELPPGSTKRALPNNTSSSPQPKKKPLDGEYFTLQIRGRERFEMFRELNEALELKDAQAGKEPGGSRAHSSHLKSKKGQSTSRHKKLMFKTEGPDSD

B1: PG p53 consensus oligonucleotide (dsDNA)
DNA 1: AATTCAGACATGCCTAGACATGCCTG
DNA 2: CAGGCATGTCTAGGCATGTCTGAATT
B1: no binding (GST-RB18A-N2).

B2: TL non-specific competitor (dsDNA)
DNA 1: TATGTCTAAGGGACCTGCGGTTGGCATTGATCTTG
DNA 2: CAAGATCAATGCCAACCGCAGGTCCCTTAGACATA
B2: no binding (p53 wild-type).
